Test results published in the RNAGym collection of RNA variant scans (doi:10.7554/elife.80360).

B1: CPEB3 Ribozyme (parent)
chain: GGGGGCCACAGCAGAAGCGUUCACGUCGCGGCCCCUGUCAGAUUCUGGUGAAUCUGCGAAUUCUGCUGU

Variants of: B1
Test: self-cleavage, relative activity (ratio to wild type); higher = more cleavage; co-transcriptional

Q: For A59U U67C, which self-cleavage is on record?
A: The self-cleavage was 0.867.

Q: For A59U U69C, which self-cleavage is on record?
A: Its self-cleavage is 1.02.

Q: For A60C C63G, which self-cleavage is on record?
A: The self-cleavage was 0.344.

Q: For A60C C63U, which self-cleavage is on record?
A: The self-cleavage was 0.468.

Q: Which self-cleavage does the source give for A60C C66G here?
A: Its self-cleavage is 0.456.

Q: For A60C C66U, which self-cleavage is on record?
A: The self-cleavage was 0.412.

Q: Which self-cleavage does the source give for A60C G65C here?
A: The self-cleavage was 0.449.

Q: Which self-cleavage does the source give for A60C G68C here?
A: The self-cleavage was 0.392.

Q: With A60C G68U as the variant, how does the self-cleavage read?
A: The self-cleavage was 0.395.

Q: With A60C U61A as the variant, how does the self-cleavage read?
A: The self-cleavage was 0.472.

Q: For A60C U61G, which self-cleavage is on record?
A: Its self-cleavage is 0.3.

Q: Which self-cleavage does the source give for A60C U62G here?
A: The self-cleavage was 0.429.

Q: Which self-cleavage does the source give for A60C U64A here?
A: Its self-cleavage is 0.267.

Q: With A60C U64G as the variant, how does the self-cleavage read?
A: Its self-cleavage is 0.333.

Q: Which self-cleavage does the source give for A60C U67A here?
A: The self-cleavage was 0.358.

Q: Which self-cleavage does the source give for A60C U67C here?
A: The self-cleavage was 0.313.

Q: For A60C U67G, which self-cleavage is on record?
A: The self-cleavage was 0.37.

Q: Which self-cleavage does the source give for A60C U69C here?
A: Its self-cleavage is 0.627.

Q: Which self-cleavage does the source give for A60G C63A here?
A: The self-cleavage was 0.429.

Q: Which self-cleavage does the source give for A60G C63G here?
A: Its self-cleavage is 0.545.

Q: With A60G C63U as the variant, how does the self-cleavage read?
A: The self-cleavage was 0.867.

Q: With A60G C66A as the variant, how does the self-cleavage read?
A: Its self-cleavage is 0.582.

Q: For A60G C66G, which self-cleavage is on record?
A: The self-cleavage was 0.559.

Q: With A60G C66U as the variant, how does the self-cleavage read?
A: The self-cleavage was 0.818.

Q: For A60G G65A, which self-cleavage is on record?
A: Its self-cleavage is 0.373.

Q: With A60G G65U as the variant, how does the self-cleavage read?
A: The self-cleavage was 0.412.

Q: Which self-cleavage does the source give for A60G G68U here?
A: The self-cleavage was 0.954.

Q: Which self-cleavage does the source give for A60G U61A here?
A: Its self-cleavage is 0.632.

Q: For A60G U61G, which self-cleavage is on record?
A: The self-cleavage was 0.533.

Q: With A60G U62C as the variant, how does the self-cleavage read?
A: Its self-cleavage is 0.436.

Q: Which self-cleavage does the source give for A60G U62G here?
A: The self-cleavage was 0.687.

Q: Which self-cleavage does the source give for A60G U67C here?
A: The self-cleavage was 0.747.

Q: With A60G U67G as the variant, how does the self-cleavage read?
A: The self-cleavage was 0.902.

Q: For A60G U69G, which self-cleavage is on record?
A: The self-cleavage was 1.01.

Q: With A60U C63A as the variant, how does the self-cleavage read?
A: Its self-cleavage is 0.391.

Q: Which self-cleavage does the source give for A60U C63G here?
A: Its self-cleavage is 0.38.

Q: Which self-cleavage does the source give for A60U C63U here?
A: The self-cleavage was 0.479.

Q: Which self-cleavage does the source give for A60U C66U here?
A: The self-cleavage was 0.505.

Q: With A60U G65A as the variant, how does the self-cleavage read?
A: Its self-cleavage is 0.527.

Q: Which self-cleavage does the source give for A60U G65U here?
A: Its self-cleavage is 0.43.

Q: With A60U U61C as the variant, how does the self-cleavage read?
A: The self-cleavage was 0.629.

Q: For A60U U61G, which self-cleavage is on record?
A: Its self-cleavage is 0.556.

Q: Which self-cleavage does the source give for A60U U62A here?
A: The self-cleavage was 0.551.

Q: Which self-cleavage does the source give for A60U U62C here?
A: The self-cleavage was 0.492.

Q: For A60U U64C, which self-cleavage is on record?
A: The self-cleavage was 0.445.

Q: With A60U U67A as the variant, how does the self-cleavage read?
A: Its self-cleavage is 0.454.

Q: With A60U U67C as the variant, how does the self-cleavage read?
A: The self-cleavage was 0.471.

Q: With A60U U69C as the variant, how does the self-cleavage read?
A: Its self-cleavage is 0.754.

Q: Which self-cleavage does the source give for A60U U69G here?
A: The self-cleavage was 0.614.

Q: With U61A as the variant, how does the self-cleavage read?
A: The self-cleavage was 0.96.

Q: For U61A C63A, which self-cleavage is on record?
A: The self-cleavage was 0.729.

Q: For U61A C63U, which self-cleavage is on record?
A: Its self-cleavage is 0.721.

Q: With U61A C66A as the variant, how does the self-cleavage read?
A: The self-cleavage was 0.386.

Q: With U61A C66G as the variant, how does the self-cleavage read?
A: The self-cleavage was 0.44.

Q: Which self-cleavage does the source give for U61A G65A here?
A: Its self-cleavage is 0.519.

Q: With U61A G65C as the variant, how does the self-cleavage read?
A: Its self-cleavage is 0.542.

Q: With U61A G65U as the variant, how does the self-cleavage read?
A: Its self-cleavage is 0.459.

Q: Which self-cleavage does the source give for U61A G68C here?
A: The self-cleavage was 0.947.

Q: Which self-cleavage does the source give for U61A G68U here?
A: Its self-cleavage is 0.937.

Q: For U61A U62C, which self-cleavage is on record?
A: The self-cleavage was 0.829.

Q: Which self-cleavage does the source give for U61A U62G here?
A: The self-cleavage was 0.646.

Q: Which self-cleavage does the source give for U61A U64A here?
A: Its self-cleavage is 0.54.

Q: For U61A U67A, which self-cleavage is on record?
A: The self-cleavage was 0.903.

Q: For U61A U67C, which self-cleavage is on record?
A: Its self-cleavage is 0.896.

Q: Which self-cleavage does the source give for U61A U67G here?
A: Its self-cleavage is 0.958.

Q: With U61A U69A as the variant, how does the self-cleavage read?
A: The self-cleavage was 0.958.

Q: For U61C, which self-cleavage is on record?
A: The self-cleavage was 0.88.

Q: With U61C C63A as the variant, how does the self-cleavage read?
A: Its self-cleavage is 0.651.

Q: Which self-cleavage does the source give for U61C C63U here?
A: The self-cleavage was 0.425.

Q: With U61C C66A as the variant, how does the self-cleavage read?
A: Its self-cleavage is 0.375.

Q: With U61C C66G as the variant, how does the self-cleavage read?
A: Its self-cleavage is 0.396.

Q: Which self-cleavage does the source give for U61C C66U here?
A: The self-cleavage was 0.557.

Q: For U61C G65C, which self-cleavage is on record?
A: The self-cleavage was 0.339.

Q: For U61C G65U, which self-cleavage is on record?
A: The self-cleavage was 0.292.

Q: With U61C G68A as the variant, how does the self-cleavage read?
A: Its self-cleavage is 0.924.

Q: Which self-cleavage does the source give for U61C G68C here?
A: Its self-cleavage is 0.978.

Q: With U61C U62C as the variant, how does the self-cleavage read?
A: The self-cleavage was 0.479.

Q: With U61C U64A as the variant, how does the self-cleavage read?
A: Its self-cleavage is 0.322.

Q: With U61C U64C as the variant, how does the self-cleavage read?
A: Its self-cleavage is 0.31.

Q: For U61C U64G, which self-cleavage is on record?
A: Its self-cleavage is 0.474.

Q: With U61C U67A as the variant, how does the self-cleavage read?
A: The self-cleavage was 0.741.

Q: For U61C U67C, which self-cleavage is on record?
A: The self-cleavage was 0.764.

Q: Which self-cleavage does the source give for U61C U69C here?
A: The self-cleavage was 1.02.
